Key:
[1] = target: T1, human CD39 (gene ID 953) (human, UniProt P49961 5-510); assay: flow cytometry, rabbit IgG hcAb supernatant on transfected HEK cells
T1 construct: Cell-surface form: transiently or stably transfected HEK cells, PBMCs, AML cell lines; also called native CD39; human CD39 transfected HEK cells
T1 sequence: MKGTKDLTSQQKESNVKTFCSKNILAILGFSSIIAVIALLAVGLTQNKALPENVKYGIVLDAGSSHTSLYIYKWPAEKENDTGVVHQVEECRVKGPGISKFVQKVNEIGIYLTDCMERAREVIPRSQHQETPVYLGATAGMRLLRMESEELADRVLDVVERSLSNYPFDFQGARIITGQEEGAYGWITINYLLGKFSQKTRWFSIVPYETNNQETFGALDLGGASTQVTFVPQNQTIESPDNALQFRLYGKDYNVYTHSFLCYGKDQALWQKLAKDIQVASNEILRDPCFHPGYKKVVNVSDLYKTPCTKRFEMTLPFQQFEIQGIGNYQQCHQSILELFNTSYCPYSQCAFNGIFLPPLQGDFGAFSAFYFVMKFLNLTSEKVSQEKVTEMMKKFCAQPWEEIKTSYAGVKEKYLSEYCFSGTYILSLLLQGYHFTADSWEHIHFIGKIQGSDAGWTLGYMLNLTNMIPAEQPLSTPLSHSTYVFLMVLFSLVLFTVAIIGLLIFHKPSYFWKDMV

[2] = target: recombinant human CD39 ectodomain with C-terminal His6x tag (human) (UniProt P49961); assay: BLI (Octet RED96), rabbit IgG hcAb on protein A biosensor, recombinant CD39 ectodomain as analyte
[3] = target: recombinant human CD39 ectodomain with C-terminal His6x tag (human) (UniProt P49961); assay: BLI (Octet RED96), rabbit IgG hcAb on protein A biosensor, recombinant CD39 ectodomain as analyte at 200 ng/µl

B1: SB28 rabbit IgG hcAb (Fc fusion, not shown: a dimerising Fc or GST)
VHH: QVQLVESGGGLVQPGGSLRLSCAASGSIFNFNAMGWYRQAPGKQRELVAAITSGGSTNYADSVKGRFTISRDNAKNTVYLQMNSLKPEDTAVYYCHGIGGSTWFGEEEYDYWGQGTQVTVSS
notes: also called family 1
binding result [1]: binds
koff [2]: 0.0003 s⁻¹
koff [3]: 0.00039 s⁻¹
